Measured values reported in patent publication US20060160994A1 (STICHTING SANQUIN BLOEDVOORZIENING, published 2006).

How the values were obtained:
[1] = target: T1, low density lipoprotein receptor-related protein (LRP), purified and immobilized (UniProt Q07954 20-4544, limits assumed); assay: SPR, LRP immobilized (6.7 fmol/mm^2), two classes of binding sites, class B; Kd = koff/kon
T1 construct: Purified LRP, amine-coupled to a CM5 sensor chip; also called low density lipoprotein receptor protein; alpha2-macroglobulin receptor
T1 sequence (Q07954 20-4544 limits assumed, form in doubt): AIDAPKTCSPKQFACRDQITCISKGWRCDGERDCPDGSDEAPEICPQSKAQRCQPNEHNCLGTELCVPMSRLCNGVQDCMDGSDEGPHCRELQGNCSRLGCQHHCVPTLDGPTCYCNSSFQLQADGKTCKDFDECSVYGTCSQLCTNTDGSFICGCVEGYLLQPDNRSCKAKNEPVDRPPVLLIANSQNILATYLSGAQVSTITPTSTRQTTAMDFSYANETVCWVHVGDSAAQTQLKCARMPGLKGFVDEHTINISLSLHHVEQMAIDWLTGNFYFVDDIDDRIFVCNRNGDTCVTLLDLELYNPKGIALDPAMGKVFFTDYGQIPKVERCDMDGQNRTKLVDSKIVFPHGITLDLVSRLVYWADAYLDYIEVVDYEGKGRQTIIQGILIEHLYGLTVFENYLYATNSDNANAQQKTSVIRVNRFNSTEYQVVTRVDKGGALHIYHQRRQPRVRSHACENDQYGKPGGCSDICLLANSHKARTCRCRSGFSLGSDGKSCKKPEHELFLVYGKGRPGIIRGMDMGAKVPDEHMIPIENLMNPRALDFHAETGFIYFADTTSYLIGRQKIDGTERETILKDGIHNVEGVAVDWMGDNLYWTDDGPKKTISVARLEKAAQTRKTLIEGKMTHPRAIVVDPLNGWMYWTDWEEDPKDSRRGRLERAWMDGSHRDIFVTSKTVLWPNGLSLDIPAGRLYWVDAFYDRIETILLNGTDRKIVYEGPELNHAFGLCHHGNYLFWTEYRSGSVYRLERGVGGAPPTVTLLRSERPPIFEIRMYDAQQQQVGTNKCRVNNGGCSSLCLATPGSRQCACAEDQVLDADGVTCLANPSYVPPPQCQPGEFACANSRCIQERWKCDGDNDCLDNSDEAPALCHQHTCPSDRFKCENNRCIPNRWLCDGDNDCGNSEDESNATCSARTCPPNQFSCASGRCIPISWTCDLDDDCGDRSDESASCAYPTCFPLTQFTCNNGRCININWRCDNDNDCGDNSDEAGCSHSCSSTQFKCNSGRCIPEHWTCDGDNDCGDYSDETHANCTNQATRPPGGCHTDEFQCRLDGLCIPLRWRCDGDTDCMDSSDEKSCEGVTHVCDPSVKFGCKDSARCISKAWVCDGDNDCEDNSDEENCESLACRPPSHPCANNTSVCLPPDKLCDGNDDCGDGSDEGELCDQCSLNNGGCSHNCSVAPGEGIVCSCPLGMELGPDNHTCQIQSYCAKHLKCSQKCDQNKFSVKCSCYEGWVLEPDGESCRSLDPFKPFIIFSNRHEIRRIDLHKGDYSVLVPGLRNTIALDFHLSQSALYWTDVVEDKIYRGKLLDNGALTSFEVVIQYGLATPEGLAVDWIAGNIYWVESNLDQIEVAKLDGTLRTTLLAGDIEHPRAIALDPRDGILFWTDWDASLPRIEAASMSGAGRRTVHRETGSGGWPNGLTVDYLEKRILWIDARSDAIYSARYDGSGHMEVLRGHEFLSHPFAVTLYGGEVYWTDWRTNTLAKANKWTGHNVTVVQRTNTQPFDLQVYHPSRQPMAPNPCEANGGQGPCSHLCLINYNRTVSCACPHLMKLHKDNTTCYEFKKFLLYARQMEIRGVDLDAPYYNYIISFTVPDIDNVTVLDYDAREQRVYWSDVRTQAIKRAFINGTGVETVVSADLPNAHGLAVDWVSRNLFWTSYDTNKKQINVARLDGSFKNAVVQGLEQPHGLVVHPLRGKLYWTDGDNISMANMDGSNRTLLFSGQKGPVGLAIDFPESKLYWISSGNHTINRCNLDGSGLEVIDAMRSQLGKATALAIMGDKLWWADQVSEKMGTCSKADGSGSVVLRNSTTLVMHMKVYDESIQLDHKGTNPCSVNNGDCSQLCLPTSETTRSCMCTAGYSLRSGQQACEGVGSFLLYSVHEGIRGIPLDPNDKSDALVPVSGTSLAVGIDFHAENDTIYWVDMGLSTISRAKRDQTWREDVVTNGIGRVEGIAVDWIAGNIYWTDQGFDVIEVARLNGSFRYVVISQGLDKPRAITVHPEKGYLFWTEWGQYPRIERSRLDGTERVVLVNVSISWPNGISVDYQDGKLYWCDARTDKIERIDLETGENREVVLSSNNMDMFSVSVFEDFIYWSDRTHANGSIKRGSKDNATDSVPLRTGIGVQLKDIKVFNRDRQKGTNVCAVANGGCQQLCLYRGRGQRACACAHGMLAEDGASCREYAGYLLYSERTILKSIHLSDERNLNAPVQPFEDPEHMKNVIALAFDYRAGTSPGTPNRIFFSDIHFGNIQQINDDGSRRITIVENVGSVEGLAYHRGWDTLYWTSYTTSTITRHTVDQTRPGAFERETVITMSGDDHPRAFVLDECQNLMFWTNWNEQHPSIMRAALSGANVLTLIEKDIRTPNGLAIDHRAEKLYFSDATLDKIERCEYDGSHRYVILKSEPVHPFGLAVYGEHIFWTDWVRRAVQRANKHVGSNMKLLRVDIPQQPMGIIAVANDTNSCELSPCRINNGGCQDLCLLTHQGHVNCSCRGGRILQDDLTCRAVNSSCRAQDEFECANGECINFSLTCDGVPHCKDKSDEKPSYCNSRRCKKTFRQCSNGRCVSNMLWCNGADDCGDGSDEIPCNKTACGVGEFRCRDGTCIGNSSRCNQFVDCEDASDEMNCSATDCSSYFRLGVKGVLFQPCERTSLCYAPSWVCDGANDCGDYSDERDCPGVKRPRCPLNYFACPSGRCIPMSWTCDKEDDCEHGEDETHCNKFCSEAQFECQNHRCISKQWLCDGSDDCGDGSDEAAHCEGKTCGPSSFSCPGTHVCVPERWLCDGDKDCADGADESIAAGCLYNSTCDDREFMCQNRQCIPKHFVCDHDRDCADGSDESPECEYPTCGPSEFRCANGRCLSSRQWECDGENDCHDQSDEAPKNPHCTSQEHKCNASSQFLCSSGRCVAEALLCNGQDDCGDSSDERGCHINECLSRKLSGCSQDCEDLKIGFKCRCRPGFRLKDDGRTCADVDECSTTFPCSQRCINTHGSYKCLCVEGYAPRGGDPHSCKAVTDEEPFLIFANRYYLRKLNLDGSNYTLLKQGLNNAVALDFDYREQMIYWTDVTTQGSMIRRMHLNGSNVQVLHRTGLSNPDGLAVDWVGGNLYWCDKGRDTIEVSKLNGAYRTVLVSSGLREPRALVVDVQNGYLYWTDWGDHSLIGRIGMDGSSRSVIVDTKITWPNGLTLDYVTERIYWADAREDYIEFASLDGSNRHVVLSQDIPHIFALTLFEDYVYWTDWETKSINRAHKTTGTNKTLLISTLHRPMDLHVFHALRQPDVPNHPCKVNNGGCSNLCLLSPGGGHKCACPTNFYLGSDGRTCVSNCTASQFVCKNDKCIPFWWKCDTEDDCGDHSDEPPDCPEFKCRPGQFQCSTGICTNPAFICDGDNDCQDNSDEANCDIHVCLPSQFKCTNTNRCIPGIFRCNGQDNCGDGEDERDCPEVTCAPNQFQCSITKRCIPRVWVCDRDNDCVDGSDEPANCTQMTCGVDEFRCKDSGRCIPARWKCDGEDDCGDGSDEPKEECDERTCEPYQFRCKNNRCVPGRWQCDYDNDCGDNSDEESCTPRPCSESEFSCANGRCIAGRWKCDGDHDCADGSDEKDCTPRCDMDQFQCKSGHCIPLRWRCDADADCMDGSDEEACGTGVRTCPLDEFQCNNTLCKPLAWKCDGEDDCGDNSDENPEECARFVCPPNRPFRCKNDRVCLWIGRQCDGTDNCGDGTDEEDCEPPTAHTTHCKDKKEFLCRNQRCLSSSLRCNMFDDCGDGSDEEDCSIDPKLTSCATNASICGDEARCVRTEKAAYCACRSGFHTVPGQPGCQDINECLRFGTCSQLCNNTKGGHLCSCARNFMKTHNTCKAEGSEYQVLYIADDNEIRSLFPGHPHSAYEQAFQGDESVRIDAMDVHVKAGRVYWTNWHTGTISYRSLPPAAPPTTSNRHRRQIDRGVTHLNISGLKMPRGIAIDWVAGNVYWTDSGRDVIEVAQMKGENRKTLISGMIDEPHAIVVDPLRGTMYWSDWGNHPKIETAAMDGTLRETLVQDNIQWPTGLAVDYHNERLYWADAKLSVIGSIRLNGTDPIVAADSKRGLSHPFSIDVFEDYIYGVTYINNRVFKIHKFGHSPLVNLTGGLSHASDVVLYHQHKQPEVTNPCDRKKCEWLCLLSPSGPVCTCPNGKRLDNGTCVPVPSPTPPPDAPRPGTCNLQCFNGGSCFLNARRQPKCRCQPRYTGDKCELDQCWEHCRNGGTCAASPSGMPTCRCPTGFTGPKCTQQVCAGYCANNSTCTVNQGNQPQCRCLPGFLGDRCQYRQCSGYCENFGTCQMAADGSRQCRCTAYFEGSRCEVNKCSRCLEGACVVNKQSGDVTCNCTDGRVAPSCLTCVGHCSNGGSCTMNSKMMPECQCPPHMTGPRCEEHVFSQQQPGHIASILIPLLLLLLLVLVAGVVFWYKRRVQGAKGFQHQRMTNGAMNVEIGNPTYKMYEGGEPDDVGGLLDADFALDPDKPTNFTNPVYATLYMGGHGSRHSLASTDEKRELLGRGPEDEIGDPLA
Procedure: (§1) This method is generally known in the art and was employed for the kinetic analysis of the interaction between LRP and receptor-associated protein (RAP) (Hom I, in LRP-ligand interactions: kinetics and structural requirements; Ph.D. thesis, 1997, pp. 65-106, Amsterdam University). […] Subsequently, the channels were incubated with the same buffer at a similar flow so as to enable dissociation.
(§2) The data were analyzed by means of Biacore Evaluation Software (Pharmacia Biosensor AB, Uppsala, Sweden). […] The association and dissociation speed constants (kₒₙ and koff, respectively) were calculated for the two binding sites. These speed constants were subsequently used to obtain the affinity constants (Kd) for these interactions.

[2] = target: T1, low density lipoprotein …; assay: SPR, LRP immobilized (6.7 fmol/mm^2), two classes of binding sites, class B
Procedure: as §1, §2

[3] = target: T1, low density lipoprotein …; assay: SPR, LRP immobilized (6.7 fmol/mm^2), two classes of binding sites, class A; Kd = koff/kon
Procedure: as §1, §2

[4] = target: T1, low density lipoprotein …; assay: SPR, LRP immobilized (6.7 fmol/mm^2), two classes of binding sites, class A
Procedure: as §1, §2

- Kd [1]: 37 nM
- koff [2]: 0.0027 s⁻¹
- kon [2]: 72000 M⁻¹ s⁻¹
- Kd [3]: 182 nM
- koff [4]: 0.055 s⁻¹
- kon [4]: 300000 M⁻¹ s⁻¹
B1: light chain of Factor VIII (other)
chain: EITRTTLQSDQEEIDYDDTISVEMKKEDFDIYDEDENQSPRSFQKKTRHYFIAAVERLWDYGMSSSPHVLRNRAQSGSVPQFKKVVFQEFTDGSFTQPLYRGELNEHLGLLGPYIRAEVEDNIMVTFRNQASRPYSFYSSLISYEEDQRQGAEPRKNFVKPNETKTYFWKVQHHMAPTKDEFDCKAWAYFSDVDLEKDVHSGLIGPLLVCHTNTLNPAHGRQVTVQEFALFFTIFDETKSWYFTENMERNCRAPCNIQMEDPTFKENYRFHAINGYIMDTLPGLVMAQDQRIRWYLLSMGSNENIHSIHFSGHVFTVRKKEEYKMALYNLYPGVFETVEMLPSKAGIWRVECLIGEHLHAGMSTLFLVYSNKCQTPLGMASGHIRDFQITASGQYGQWAPKLARLHYSGSINAWSTKEPFSWIKVDLLAPMIIHGIKTQGARQKFSSLYISQFIIMYSLDGKKWQTYRGNSTGTLMVFFGNVDSSGIKHNIFNPPIIARYIRLHPTHYSIRSTLRMELMGCDLNSCSMPLGMESKAISDAQITASSYFTNMFATWSPSKARLHLQGRSNAWRPQVNNPKEWLQVDFQKTMKVTGVTTQGVKSLLTSMYVKEFLISSSQDGHQWTLFFQNGKVKVFQGNQDSFTPVVNSLDPPLLTRYLRIHPQSWVHQIALRMEVLGCEAQDLY
notes: also called Factor VIII light chain
